Results taken from the supplement of paper PMC9732359.
± gives the uncertainty stated by the source.

Assay: protein stability index of a GFP-peptide fusion (yeast GPS) (PSI 1-4); higher = more stable; sorted into four equal gates, so the index is relative within each strain
Procedure, shortened: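 Peptides tiling yeast proteins in 17-residue segments were fused downstream of GFP, with Cherry expressed from the same plasmid. As a pooled library in yeast, mid-log cultures grown in leucine-free medium were sorted into four equal gates by GFP/Cherry fluorescence ratio. Gate plasmids were PCR-amplified and Illumina-sequenced, and barcodes linked reads to strains. Each peptide received a protein stability index equal to the sum of each gate's read frequency times its gate number.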

Sequence	protein stability index (doa10∆)	protein stability index (san1∆)	protein stability index (ubr1∆)	protein stability index (pdr5∆)
ERNASEVRDATLNNIFR [GRR1]	3.36 ± 0.17	3.41 ± 0.19	3.53 ± 0.16	–
MASGSTTFTKVAAKWNT [PRP8]	2.58 ± 0.072	2.51 ± 0.084	2.93 ± 0.07	2.52 ± 0.069
TLRCSVVEACGNIVAEL [YCS4]	1.87 ± 0.095	2.17 ± 0.15	1.55 ± 0.062	2.19 ± 0.093
RFKYAPGTIVLYAERVQ [RPS3]	1.61 ± 0.072	1.56 ± 0.1	1.84 ± 0.093	1.65 ± 0.062
PRYTYHTIFSDVCKTRF [YML031W/NDC1]	2.77 ± 0.055	2.62 ± 0.035	2.82 ± 0.055	3 ± 0.051
HIPICVTFSFFNPQDTE [RRP45]	1.56 ± 0.048	1.28 ± 0.1	1.58 ± 0.046	1.61 ± 0.06
IPLNRLSLDSDVKFPSN [SMC3]	1.69 ± 0.059	2.05 ± 0.11	1.99 ± 0.054	1.92 ± 0.064
KVLLPSINISCVQLIKC [SWI1]	1.27 ± 0.064	1.17 ± 0.18	1.49 ± 0.051	1.47 ± 0.051
SGQKAGLIAARRTGLLR [RPL2A]	3.07 ± 0.19	3.15 ± 0.067	2.72 ± 0.16	3.43 ± 0.11
ETIKSLEDPYKYHYKEE [CSN9]	3.17 ± 0.09	3.09 ± 0.07	3.14 ± 0.06	3.13 ± 0.082
NQQAQARQQVAQQLRNQ [GAL11]	2.49 ± 0.065	2.45 ± 0.14	2.34 ± 0.1	2.94 ± 0.13
APLVLLSALDHYERTQT [RPN8]	2.45 ± 0.051	2.39 ± 0.057	2.42 ± 0.039	2.45 ± 0.053
ATNANATTDQEGDIHLE [PRE10]	3.35 ± 0.23	3.33 ± 0.036	3.11 ± 0.12	3.39 ± 0.14
ARIIRSELLARDIFQED [RGR1]	2.26 ± 0.11	2.14 ± 0.12	2.19 ± 0.096	2.4 ± 0.087
HLAVVCVDDNSKISFID [SSN2]	–	–	3.67 ± 0.16	2.84 ± 0.17
RKLGLLGDKEDEKQSAK [MTW1]	3.37 ± 0.083	2.94 ± 0.1	3.28 ± 0.067	3.41 ± 0.09
GYDKKKNKPELYQIDYL [PRE1]	3.04 ± 0.086	3.02 ± 0.066	3.08 ± 0.09	2.91 ± 0.098
RKVENIRTILVNIHHLL [MED7]	1.55 ± 0.04	1.5 ± 0.087	1.32 ± 0.033	1.74 ± 0.041
SNLAATKSMVKIAEQYS [RPN11]	2.83 ± 0.075	3.04 ± 0.051	2.98 ± 0.063	2.73 ± 0.064
TKIDMPIKNRKNDTHYL [BRN1]	3.04 ± 0.07	2.93 ± 0.055	2.94 ± 0.053	3.05 ± 0.075
EDPVTVEYLTRYVAGVQ [PRE6]	2.39 ± 0.058	2.54 ± 0.051	2.54 ± 0.067	2.39 ± 0.07
LHNIWSNGLLSIVLLLL [YML103C/NUP188]	1.38 ± 0.069	1.5 ± 0.14	1.54 ± 0.12	1.34 ± 0.059
ERTKQRTAKAYLKVSEE [PRP8]	3.08 ± 0.093	3.27 ± 0.056	3.34 ± 0.057	3.12 ± 0.11
LPDEKSDAMSIDEEDKD [YCG1]	3.04 ± 0.17	2.94 ± 0.12	3.06 ± 0.074	2.36 ± 0.11
KNEEAEIEVDEMEVDAE [RPN1]	3.4 ± 0.14	3.19 ± 0.12	3.62 ± 0.1	3.51 ± 0.11
TKFNHNKEKSNSPTSFF [YOR098C/NUP1]	2.78 ± 0.069	2.66 ± 0.048	2.53 ± 0.051	2.85 ± 0.066
ILERAYKKLDIDGKVIQ [SNF2]	3.16 ± 0.083	3.05 ± 0.042	3 ± 0.058	3.34 ± 0.076

Sequence	protein stability index (doa10∆)	protein stability index (san1∆)	protein stability index (ubr1∆)	protein stability index (pdr5∆)
VKLPRAFIDERASDLRM [RRP43]	–	–	1.69 ± 0.16	1.68 ± 0.26
YENKDNLTAGIIVAGYD [PRE3]	2.71 ± 0.047	2.98 ± 0.04	2.78 ± 0.036	2.91 ± 0.05
KPVMEVTSSFFYRGNYT [FAS1]	2.21 ± 0.065	1.91 ± 0.12	2.1 ± 0.081	2.11 ± 0.065
IKELLNITKNLKTFNGS [POP4]	1.99 ± 0.13	2.46 ± 0.056	2.21 ± 0.047	2 ± 0.064
LTFHTLKKANIIYHTTF [YLR018C/POM34]	1.9 ± 0.036	2 ± 0.05	1.98 ± 0.028	2.25 ± 0.038
TCAGGRLFNVVVQDSQT [SMC2]	2.84 ± 0.11	2.39 ± 0.12	2.76 ± 0.082	3.18 ± 0.11
TKPFENVEKYPTFVEFI [SNU114]	2.7 ± 0.23	2.87 ± 0.11	2.86 ± 0.11	3.02 ± 0.1
YYGLVIDLLLLGQERAT [PRP8]	1.76 ± 0.083	1.23 ± 0.11	1.38 ± 0.039	1.26 ± 0.053
LFKKFNNDFKLSIDKVL [RET1]	1.66 ± 0.12	2.15 ± 0.15	2.67 ± 0.093	1.8 ± 0.11
NLLTPQPTNFTTKRLWS [MCD1]	2.79 ± 0.074	2.73 ± 0.064	2.85 ± 0.065	2.79 ± 0.063
SGTFYRYNAKAIGSGSE [PUP2]	3.15 ± 0.088	3.37 ± 0.06	2.98 ± 0.073	3.14 ± 0.09
TTYSVDDYYKEIIGGGS [ISW2]	3.32 ± 0.1	3.19 ± 0.088	3.33 ± 0.13	3.02 ± 0.13
TKKKSKFMTNSTAFVPT [ARP9]	2.65 ± 0.054	2.47 ± 0.058	2.77 ± 0.038	2.79 ± 0.045
VVRRRFRGNISQPKIGY [RPL32]	2.85 ± 0.096	2.9 ± 0.067	2.92 ± 0.05	2.88 ± 0.06
ITDKTIKAFMDSTIGNS [IRR1]	2.54 ± 0.15	3.4 ± 0.15	2.41 ± 0.14	2.62 ± 0.14
IFNGETLEDALRRIITD [GRR1]	1.96 ± 0.084	2.07 ± 0.07	2.07 ± 0.064	1.96 ± 0.059
MSYVVRILSTLDRELLK [RPT3]	2.31 ± 0.098	2.55 ± 0.057	2.88 ± 0.094	2.24 ± 0.1
NSQVFGVARIYASFNDT [RPS14B]	2.54 ± 0.08	2.5 ± 0.048	2.67 ± 0.079	2.45 ± 0.065
ITKLNKEIRAFDKLLNI [SRB4]	3.41 ± 0.098	3.36 ± 0.077	3.15 ± 0.12	3.44 ± 0.088
FLTPMDSIDLAPNTLTN [YML103C/NUP188]	1.51 ± 0.18	1.98 ± 0.18	1.26 ± 0.082	1.68 ± 0.1
DDDTFSDREMAALIASK [RPN2]	1.6 ± 0.079	1.32 ± 0.12	1.79 ± 0.063	1.55 ± 0.056
QANTEPENITKREASRG [MCD1]	3.01 ± 0.079	3.03 ± 0.06	3.13 ± 0.047	2.84 ± 0.073
PISAVLRGCKFLQSVDI [GRR1]	2.08 ± 0.041	1.83 ± 0.052	2.01 ± 0.036	2.08 ± 0.053
ISVTDTEVERAKSLLKL [COR1]	3.3 ± 0.1	3.08 ± 0.053	3.24 ± 0.084	3.26 ± 0.084
KKVGITGKYGVRYGSSL [RPL43A]	3.16 ± 0.065	3.3 ± 0.045	3.15 ± 0.033	3.28 ± 0.051
KAEMPPEHLRKIINTHS [PRP8]	1.94 ± 0.089	1.82 ± 0.12	1.89 ± 0.061	1.74 ± 0.058
